Data reported in patent publication US20220402983A1 (Janssen / Centocor, published 2022).
Bridges are numbered along the chain shown (N, C = ends). [ ]: non-standard residue; d: D form. The star is where a group is joined. Trp(7-Ph) = N[C@@H](Cc1c[nH]c2c(-c3ccccc3)cccc12)C(=O)O; 2Nal = N[C@@H](Cc1ccc2ccccc2c1)C(=O)O; AEF = NCCOc1ccc(C[C@H](N)C(=O)O)cc1; Cyclopropanecarbonyl = O=C(C1CC1)*; Pen = CC(C)(S)[C@H](N)C(=O)O; 3Quin = not defined here; Isobutyryl = CC(C)C(=O)*; Thp = NC1(C(=O)O)CCOCC1; Hexanoyl = CCCCCC(=O)*; Aib = CC(C)(N)C(=O)O; Propionyl = CCC(=O)*; Tfa = O=C(C(F)(F)F)*; Butyryl = CCCC(=O)*

T1: human IL-23R (interleukin-23 receptor) (human, UniProt Q5VWK5 24-629)
T1 sequence (looked up): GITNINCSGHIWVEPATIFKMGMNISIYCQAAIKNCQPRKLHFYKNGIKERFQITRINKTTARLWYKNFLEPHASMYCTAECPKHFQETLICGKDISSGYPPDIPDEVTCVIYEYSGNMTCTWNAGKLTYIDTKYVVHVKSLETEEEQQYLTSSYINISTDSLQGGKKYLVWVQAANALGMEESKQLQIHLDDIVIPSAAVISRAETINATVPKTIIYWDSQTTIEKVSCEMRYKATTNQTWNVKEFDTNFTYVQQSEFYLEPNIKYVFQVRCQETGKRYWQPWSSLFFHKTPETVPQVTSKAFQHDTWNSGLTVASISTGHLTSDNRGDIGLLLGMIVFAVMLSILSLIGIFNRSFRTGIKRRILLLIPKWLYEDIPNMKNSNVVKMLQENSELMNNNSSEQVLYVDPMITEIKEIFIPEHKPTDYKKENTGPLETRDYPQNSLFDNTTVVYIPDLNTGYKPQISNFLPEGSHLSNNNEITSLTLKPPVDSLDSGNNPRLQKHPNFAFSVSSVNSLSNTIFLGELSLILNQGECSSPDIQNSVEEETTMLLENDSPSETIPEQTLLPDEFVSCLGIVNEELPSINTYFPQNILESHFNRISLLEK

B1: Compound No. 61 (peptide)
peptide: Ac-[dR][Pen]QTWQ[Pen][AEF][2Nal][Thp]K(Isobutyryl)NF-NH2
modifications: disulfide 2-7
SMILES: CC(=O)N[C@H](CCCNC(=N)N)C(=O)N[C@@H]1C(=O)N[C@@H](CCC(N)=O)C(=O)N[C@@H]([C@@H](C)O)C(=O)N[C@@H](Cc2c[nH]c3ccccc23)C(=O)N[C@@H](CCC(N)=O)C(=O)N[C@H](C(=O)N[C@@H](Cc2ccc(OCCN)cc2)C(=O)N[C@@H](Cc2ccc3ccccc3c2)C(=O)NC2(C(=O)N[C@@H](CCCCNC(=O)C(C)C)C(=O)N[C@@H](CC(N)=O)C(=O)N[C@@H](Cc3ccccc3)C(N)=O)CCOCC2)C(C)(C)SSC1(C)C
B2: Compound No. 60 (peptide)
peptide: Ac-[dR][Pen]QTWQ[Pen][AEF][2Nal][Thp]K(Tfa)NF-NH2
modifications: disulfide 2-7
SMILES: CC(=O)N[C@H](CCCNC(=N)N)C(=O)N[C@@H]1C(=O)N[C@@H](CCC(N)=O)C(=O)N[C@@H]([C@@H](C)O)C(=O)N[C@@H](Cc2c[nH]c3ccccc23)C(=O)N[C@@H](CCC(N)=O)C(=O)N[C@H](C(=O)N[C@@H](Cc2ccc(OCCN)cc2)C(=O)N[C@@H](Cc2ccc3ccccc3c2)C(=O)NC2(C(=O)N[C@@H](CCCCNC(=O)C(F)(F)F)C(=O)N[C@@H](CC(N)=O)C(=O)N[C@@H](Cc3ccccc3)C(N)=O)CCOCC2)C(C)(C)SSC1(C)C
B3: Compound No. 56 (peptide)
peptide: Ac-[dR][Pen]QTWQ[Pen][AEF][2Nal][Thp]K(Ac)N[Thp]-NH2
modifications: disulfide 2-7
SMILES: CC(=O)NCCCC[C@H](NC(=O)C1(NC(=O)[C@H](Cc2ccc3ccccc3c2)NC(=O)[C@H](Cc2ccc(OCCN)cc2)NC(=O)[C@H]2NC(=O)[C@H](CCC(N)=O)NC(=O)[C@H](Cc3c[nH]c4ccccc34)NC(=O)[C@H]([C@@H](C)O)NC(=O)[C@H](CCC(N)=O)NC(=O)[C@@H](NC(=O)[C@@H](CCCNC(=N)N)NC(C)=O)C(C)(C)SSC2(C)C)CCOCC1)C(=O)N[C@@H](CC(N)=O)C(=O)NC1(C(N)=O)CCOCC1
B4: Compound No. 52 (peptide)
peptide: Ac-[dR][Pen]QTWQ[Pen][AEF][2Nal][Thp]K(Butyryl)N[Thp]-NH2
modifications: disulfide 2-7
SMILES: CCCC(=O)NCCCC[C@H](NC(=O)C1(NC(=O)[C@H](Cc2ccc3ccccc3c2)NC(=O)[C@H](Cc2ccc(OCCN)cc2)NC(=O)[C@H]2NC(=O)[C@H](CCC(N)=O)NC(=O)[C@H](Cc3c[nH]c4ccccc34)NC(=O)[C@H]([C@@H](C)O)NC(=O)[C@H](CCC(N)=O)NC(=O)[C@@H](NC(=O)[C@@H](CCCNC(=N)N)NC(C)=O)C(C)(C)SSC2(C)C)CCOCC1)C(=O)N[C@@H](CC(N)=O)C(=O)NC1(C(N)=O)CCOCC1
B5: Compound No. 54 (peptide)
peptide: Ac-[dR][Pen]QTWQ[Pen][AEF][2Nal][Thp]K(Propionyl)NF-NH2
modifications: disulfide 2-7
SMILES: CCC(=O)NCCCC[C@H](NC(=O)C1(NC(=O)[C@H](Cc2ccc3ccccc3c2)NC(=O)[C@H](Cc2ccc(OCCN)cc2)NC(=O)[C@H]2NC(=O)[C@H](CCC(N)=O)NC(=O)[C@H](Cc3c[nH]c4ccccc34)NC(=O)[C@H]([C@@H](C)O)NC(=O)[C@H](CCC(N)=O)NC(=O)[C@@H](NC(=O)[C@@H](CCCNC(=N)N)NC(C)=O)C(C)(C)SSC2(C)C)CCOCC1)C(=O)N[C@@H](CC(N)=O)C(=O)N[C@@H](Cc1ccccc1)C(N)=O
B6: Compound No. 55 (peptide)
peptide: Ac-[dR][Pen]QTWQ[Pen][AEF][2Nal][Thp]K(Cyclopropanecarbonyl)NF-NH2
modifications: disulfide 2-7
SMILES: CC(=O)N[C@H](CCCNC(=N)N)C(=O)N[C@@H]1C(=O)N[C@@H](CCC(N)=O)C(=O)N[C@@H]([C@@H](C)O)C(=O)N[C@@H](Cc2c[nH]c3ccccc23)C(=O)N[C@@H](CCC(N)=O)C(=O)N[C@H](C(=O)N[C@@H](Cc2ccc(OCCN)cc2)C(=O)N[C@@H](Cc2ccc3ccccc3c2)C(=O)NC2(C(=O)N[C@@H](CCCCNC(=O)C3CC3)C(=O)N[C@@H](CC(N)=O)C(=O)N[C@@H](Cc3ccccc3)C(N)=O)CCOCC2)C(C)(C)SSC1(C)C
B7: Compound No. 57 (peptide)
peptide: Ac-[dR][Pen]QTWQ[Pen][AEF][2Nal][Thp]K(Propionyl)N[Thp]-NH2
modifications: disulfide 2-7
SMILES: CCC(=O)NCCCC[C@H](NC(=O)C1(NC(=O)[C@H](Cc2ccc3ccccc3c2)NC(=O)[C@H](Cc2ccc(OCCN)cc2)NC(=O)[C@H]2NC(=O)[C@H](CCC(N)=O)NC(=O)[C@H](Cc3c[nH]c4ccccc34)NC(=O)[C@H]([C@@H](C)O)NC(=O)[C@H](CCC(N)=O)NC(=O)[C@@H](NC(=O)[C@@H](CCCNC(=N)N)NC(C)=O)C(C)(C)SSC2(C)C)CCOCC1)C(=O)N[C@@H](CC(N)=O)C(=O)NC1(C(N)=O)CCOCC1
B8: Compound No. 59 (peptide)
peptide: Ac-[dR][Pen]QTWQ[Pen][AEF][2Nal][Thp]K(Hexanoyl)NF-NH2
modifications: disulfide 2-7
SMILES: CCCCCC(=O)NCCCC[C@H](NC(=O)C1(NC(=O)[C@H](Cc2ccc3ccccc3c2)NC(=O)[C@H](Cc2ccc(OCCN)cc2)NC(=O)[C@H]2NC(=O)[C@H](CCC(N)=O)NC(=O)[C@H](Cc3c[nH]c4ccccc34)NC(=O)[C@H]([C@@H](C)O)NC(=O)[C@H](CCC(N)=O)NC(=O)[C@@H](NC(=O)[C@@H](CCCNC(=N)N)NC(C)=O)C(C)(C)SSC2(C)C)CCOCC1)C(=O)N[C@@H](CC(N)=O)C(=O)N[C@@H](Cc1ccccc1)C(N)=O
B9: Compound No. 53 (peptide)
peptide: Ac-[dR][Pen]QTWQ[Pen][AEF][2Nal][Thp]K(Ac)NF-NH2
modifications: disulfide 2-7
SMILES: CC(=O)NCCCC[C@H](NC(=O)C1(NC(=O)[C@H](Cc2ccc3ccccc3c2)NC(=O)[C@H](Cc2ccc(OCCN)cc2)NC(=O)[C@H]2NC(=O)[C@H](CCC(N)=O)NC(=O)[C@H](Cc3c[nH]c4ccccc34)NC(=O)[C@H]([C@@H](C)O)NC(=O)[C@H](CCC(N)=O)NC(=O)[C@@H](NC(=O)[C@@H](CCCNC(=N)N)NC(C)=O)C(C)(C)SSC2(C)C)CCOCC1)C(=O)N[C@@H](CC(N)=O)C(=O)N[C@@H](Cc1ccccc1)C(N)=O
B10: Compound No. 58 (peptide)
peptide: Ac-[dR][Pen]QTWQ[Pen][AEF][2Nal][Thp]K(Butyryl)NF-NH2
modifications: disulfide 2-7
SMILES: CCCC(=O)NCCCC[C@H](NC(=O)C1(NC(=O)[C@H](Cc2ccc3ccccc3c2)NC(=O)[C@H](Cc2ccc(OCCN)cc2)NC(=O)[C@H]2NC(=O)[C@H](CCC(N)=O)NC(=O)[C@H](Cc3c[nH]c4ccccc34)NC(=O)[C@H]([C@@H](C)O)NC(=O)[C@H](CCC(N)=O)NC(=O)[C@@H](NC(=O)[C@@H](CCCNC(=N)N)NC(C)=O)C(C)(C)SSC2(C)C)CCOCC1)C(=O)N[C@@H](CC(N)=O)C(=O)N[C@@H](Cc1ccccc1)C(N)=O

molecular target: T1, human IL-23R (interleukin-23 receptor); assay: cell-based or functional assay

Compared with B1, B2 is lower in “PBMC pSTAT3 IC50 (nM)” value: 70 nM for the first, 44 nM for the second.

Going from B3 to B4, the “PBMC pSTAT3 IC50 (nM)” value rises from 4.9 nM to 16 nM.

Going from B5 to B6, the “PBMC pSTAT3 IC50 (nM)” value falls from 47 nM to 25 nM.

Going from B7 to B8, the “PBMC pSTAT3 IC50 (nM)” value rises from 18 nM to 67 nM.

Going from B9 to B10, the “PBMC pSTAT3 IC50 (nM)” value rises from 29 nM to 35 nM.

With Ac-[Pen]NT[Trp(7-Ph)]K(Ac)[Pen][AEF][3Quin][Thp]EN[Aib]-NH2 (disulfide 1-6; reading uncertain) [Compound No. 62] the “pStat3 HTRF (nM), IC50, DB cells IL23R pSTAT3 cell assay” value was 0.413 nM.
